Measured values taken from patent US20190358242A1, “COMPOSITIONS, KITS, AND METHODS TO INDUCE ACQUIRED CYTORESISTANCE USING STRESS PROTEIN INDUCERS” (FRED HUTCHINSON CANCER RESEARCH CENTER, priority 2017, published 2019).
Values joined by “and” are separate entries in the source; they are usually repeats but may differ in a detail not shown here. Identical values can stand only once.

B1: myoglobin (protein, UniProt P68082 2-154, looked up)
Myoglobin: GLSDGEWQQVLNVWGKVEADIAGHGQEVLIRLFTGHPETLEKFDKFKHLKTEAEMKASEDLKKHGTVVLTALGGILKKKGHHEAELKPLAQSHATKHKIPIKYLEFISDAIIHVLHSKHPGDFGADAQGAMTKALELFRNDIAAKYKELGFQG
notes: Lyophilized horse skeletal muscle (myoglobin) (Sigma Chemicals), a heme protein

What was measured:
[1] = system: HO-1 mRNA; experiment: SnPP vs. SnMeP: renal cortical HO-1 mRNA induction (RT-PCR); type: in vivo, mice; conditions: 1 umole, 4 hrs post injection, n 3
Excerpt: (§1) FIG. 28. Comparison of SnPP vs. SnMeP effects on renal cortical HO-1 and haptoglobin mRNA induction 4 hrs post agent injection. Mice received either 1 umole tin protoporphyrin (SnPP), tin mesoporphyrin (SnMeP), or vehicle (n, 3 each) and 4 hrs renal cortical RNA was extracted and subjected to RT-PCR.

[2] = system: haptoglobin mRNA; experiment: SnPP vs. SnMeP: renal cortical haptoglobin mRNA induction (RT-PCR); type: in vivo, mice; conditions: 1 umole, 4 hrs post injection, n 3
Excerpt: as §1

[3] = system: HO-1 protein; experiment: Tin mesoporphyrin: renal cortical and plasma HO-1 protein (ELISA); type: in vivo, mice
Excerpt: FIG. 29. Tin mesoporphryin effects on renal cortical and plasma HO-1 protein levels at 4 and 18 hrs post 1 umole injection. By 4 hrs and 18 hrs post Sn mesoporphyrin injection, an approximate 3 fold and 5 fold increases in renal cortical HO-1 levels over baseline (BL) were observed, as detected by ELISA. Plasma HO-1 levels rose ˜15 fold by 18 hrs post injection (n, 3-4 per group).

[4] = system: haptoglobin; experiment: Tin mesoporphyrin: renal cortical and plasma haptoglobin levels; type: in vivo, mice; conditions: 4 and 18 hrs post 1 umole injection
[5] = system: bilateral renal ischemic injury; experiment: 22 min bilateral renal ischemic injury after mesoporphyrin pre-treatment; type: in vivo, mice; conditions: 1 umole 18 hrs before 22 min bilateral ischemic injury
Method: FIG. 31. Tin mesoporphyrin pre-treatment mitigates renal ischemic injury. Mice received either 1 umole of Sn mesoporphyrin (MeP; n, 3) or vehicle (n,4) and 18 hrs later they were all subjected to 22 min of bilateral ischemic injury.
Protection against acute kidney injury. Mice are treated with MesP alone (0.1-20.5 umoles), FeS alone (1 mg), MesP+FeS, or vehicle injection. Eighteen hrs post injections, the mice are anesthetized with pentobarbital. The abdominal cavities are opened. The renal pedicles are identified, and both are occluded with microvascular clamps. Body temperature are maintained at 36-37° C. throughout. Following 22 minutes of bilateral renal ischemia, the clamps are removed, uniform reperfusion are confirmed by the loss of tissue cyanosis, and then the abdominal cavities are closed in two layers with silk suture. Eighteen hrs later, the mice are re-anesthetized, the abdominal cavities are re-opened, and terminal blood samples are obtained from the vena cava. AKI severity are determined by degrees of BUN and plasma creatinine increases.

[6] = system: HO-1 mRNA; experiment: Renal HO-1 mRNA (RT-PCR, HO-1/GAPDH) after IV myoglobin, SnPP or both; type: in vivo, CD-1 mice
Excerpt: (§2) The Glycerol Model of AKI. This is a widely used model of rhabdomyolysis-induced AKI that has been employed worldwide for 50 years. The model was used to test whether prophylactic interventions confer protection against AKI. Basically, the protocol is as follows: Male CD-1 mice (35-45 grams), obtained from Charles River Laboratories, Wilmington, Mass. were studied. Mice were maintained under standard vivarium conditions and generally housed for 1-3 weeks prior to study. The mice were placed in a cylindrical restraining cage, and then were given a tail vein injection of the test substances (see below) or test substance vehicle. The mice were then returned to their cages. Eighteen hours (hrs) later, the mice were briefly anesthetized by isoflurane inhalation, and given an intramuscular injection of hypertonic (50%) glycerol in a dose of 9 ml/Kg body weight. The dose is divided in two, with half injected into the muscle of each of the hind limbs. The mice were then returned to their cages. Eighteen hrs later, the mice were deeply anesthetized with pentobarbital (50-100 mg/Kg), the abdominal cavity was opened through a midline abdominal incision, a blood sample was obtained from the abdominal vena cava and the kidneys were resected. A kidney cross section was obtained and fixed in formalin for subsequent histologic analysis. The terminal blood samples were analyzed for BUN and creatinine, using commercially available assay kits. The remaining kidney tissue was subjected to cortical dissection, and the cortical tissues were then extracted for protein and RNA. The protein samples were saved for analysis of HO-1 levels, and the RNA samples were subjected to RT-PCR to quantify HO-1 mRNA as well as levels of other stress gene mRNAs (e.g. NGAL, haptoglobin, hemopexin, hepicidin).
(§3) Myoglobin+SnPP: To 5 mg of dry myoglobin was added 0.9 ml of PBS+0.1 ml of a stock SnPP solution (50 umole/ml). The resulting final concentrations were 5 mg/ml myoglobin+5 umoles/ml of SnPP. The tail vein was injected with 200 ul of this solution, which equals 1 mg myoglobin+1 umole SnPP. […]
[…] To confirm that the myoglobin+SnPP has a synergistic effect in inducing HO-1 mRNA and HO-1 protein levels, each of the above combinations have been administered alone via tail vein injection. […] For additional information regarding methods, see Zager et al., Am J Physiol Renal Physiol. 2014 Jul. 30. Pii.

[7] = system: HO-1 protein; experiment: Renal cortex HO-1 protein (ELISA) after IV myoglobin, SnPP or both; type: in vivo, CD-1 mice; conditions: 4 hr IV; 1 mg myoglobin, 1 μmole SnPP
Excerpt: as §2, §3
Four hr post myoglobin vs myoglobin+SnPP vs SnPP alone experiments. To confirm that the myoglobin+SnPP has a synergistic effect in inducing HO-1 mRNA and HO-1 protein levels, each of the above combinations have been administered alone via tail vein injection. Four hrs later, the mice were sacrificed as noted above and the kidneys were harvested for assessment of HO-1 mRNA and protein levels. For additional information regarding methods, see Zager et al., Am J Physiol Renal Physiol. 2014 Jul. 30. Pii.
Given that it is just 4 hrs post injection, the mRNA increases are greater than the protein increases as protein synthesis must follow the mRNA induction-requiring more time.

[8] = system: haptoglobin; experiment: Haptoglobin protein expression after SQ injection of myoglobin with or without PEG; type: in vivo, mice; conditions: 4 hour time point after SQ injection
Method: Myoglobin+PEG: To a stock solution of 20 mg/ml Mgb in PBS was added 100 mg/ml of PEG-6000; […]. This was administered as a subcutaneous injection in the dorsal neck (250 ul total injection). For combined Mgb/PEG+SnPP, SnPP was added to the above in a concentration of 3 mg/ml.

[9] = design: species or system mice; conditions: mouse, in vivo, iv
[10] = system: HK-2 cells; experiment: HK-2 cell injury by MTT assay; type: cell-based; conditions: 10 mg/mL, 18 hr incubation
Method: HK-2 cells (a proximal tubule cell line derived from normal human kidney) were incubated in keratinocyte serum free medium either under normal (control) conditions or in the presence of 10 mg/mL horse skeletal muscle myoglobin or nitrited myoglobin (produced by equimolar Na nitrite addition to 10 mg/ml myoglobin). After 18 hr incubations, the severity of cell injury (% cell death) was assessed by MTT assay. Myoglobin induced 40% cell death (40% decrease in MTT cell uptake), compared to control incubated cells. Nitrite binding to myoglobin reduced cell death by 75%. Thus, nitrite binding is able to reduce myoglobin's cytotoxic effects.

[11] = system: HO-1 protein; experiment: Renal cortex HO-1 protein (ELISA) after IV myoglobin, SnPP or both; type: in vivo, CD-1 mice; conditions: overnight (roughly 18 hrs) post IV; 1 mg myoglobin, 1 μmole SnPP
[12] = overnight (roughly 18 hrs) post IV, 1 mg myoglobin, 1 μmole SnPP

| Molecule | Renal cortical HO-1 mRNA induction [1] | Renal cortical haptoglobin mRNA induction [2] | Increase in renal cortical HO-1 levels over baseline ([3]; 4 hrs post 1 umole injection) [fold] | Increase in renal cortical HO-1 levels over baseline ([3]; 18 hrs post 1 umole injection) [fold] | Rise in plasma HO-1 levels ([3]; 18 hrs post 1 umole injection) [fold] | Renal cortical and plasma haptoglobin levels [4] | Renal ischemic damage (BUN and plasma creatinine concentrations) [5] | HO-1/GAPDH mRNA, Average ([6]; kidney, 4 hr post IV injection) | HO-1/GAPDH mRNA, individual mice ([6]; kidney, 4 hr post IV injection) | HO-1/GAPDH mRNA, Average [6, 12] | HO-1/GAPDH mRNA, individual subjects [6, 12] | Cortex HO-1 protein (ELISA), Average [7] [ng HO-1/mg protein] | Cortex HO-1 protein (ELISA), individual mice [7] | Haptoglobin protein expression [8] [ng/mg ng/mg protein] | Plasma LDH, Average [9] [Absorbance U LDH/ml] | Cell death (decrease in MTT cell uptake) vs control incubated cells [10] [%] | HO-1 protein induction, Average [11] | HO-1 protein induction, individual subjects [11] |
| --- | --- | --- | --- | --- | --- | --- | --- | --- | --- | --- | --- | --- | --- | --- | --- | --- | --- | --- |
| tin mesoporphyrin [SnMeP] | raised | raised | ~3 | ~5 | ~15 | stepwise increases | lessening of ischemic damage |  |  |  |  |  |  |  |  |  |  |  |
| B1 |  |  |  |  |  |  |  | 3.93 | 7.78 and 2.93 and 2.58 and 2.41 | 0.58 | 0.71 and 0.53 and 0.51 | 45.4 | 40.7 ng HO-1/mg protein and 40.2 ng HO-1/mg protein and 64.7 ng HO-1/mg protein and 36.0 ng HO-1/mg protein | 32.7 ± 6.3 | 4.47 | 40 | 36.7 | 50.6 and 34.9 and 24.6 |
